Experimental findings from patent publication US20110117113A1, “IMMUNOGLOBULIN SINGLE VARIABLE DOMAIN DIRECTED AGAINST HUMAN CXCR4 AND OTHER CELL ASSOCIATED PROTEINS AND METHODS TO GENERATE THEM” (priority 2009, published 2011) are described below.

Test [1] deals with T1, wildtype human CXCR4 (Homo sapiens, UniProt P61073).
T1 construct: expressed in transfected cells; host or cells: Hek293T, transient, pcDNA3.1
Put plainly: Footprint assay, flow cytometry binding to wildtype human CXCR4 on Hek293T cells. The following applies: Myc-tag detection, 10 nM and 100 nM Nanobody, average n = 3, wild type used for normalization. From the text:
(§1) Based on the data from example 1.8, we introduced 3 single point-mutations in ECL2 of CXCR4 that allowed to discriminate between 238D2 and 238D4-like epitopes: V196E (specifically disturbing D2 binding)-SEQ ID NO: 20, D187V (specifically disturbing D4 binding)-SEQ ID NO: 21, F189V (disturbing binding of both D2 and D4)-SEQ ID NO: 19. […] For the epitope mapping, transient transfections of the three CXCR4 mutants and wildtype human CXCR4 in the pcDNA3.1 vector were done in Hek293T cells, after which Nanobody binding of different families was assessed by flow cytometry using detection of the Myc-tag, followed by secondary anti-mouse PE. Two concentrations of Nanobody were tested, 10 nM and 100 nM, and experiment was repeated with essentially the same results. Binding of the Nanobodies to HEK293T hCXCR4 cells was used for normalization using the following formulas:
(§2) Percentage of binding to the mutant receptors was calculated for each Nanobody concentration, and a position was considered as critical when less than 25% residual binding (average of n=3) was observed (Table C-5). […] Nanobodies could be grouped according to their different binding patterns, not only in “238D2-like” or “epitope A binders” and “238D4-like” or “epitope B binders” but also into other new groups.

Test [2] deals with T2, CXCR4 mutant 2 (V196E) (Homo sapiens, UniProt P61073, V196E).
T2 construct: expressed in transfected cells; host or cells: Hek293T, transient, pcDNA3.1
Put plainly: Footprint assay, flow cytometry binding to CXCR4 V196E on Hek293T cells. The following applies: Myc-tag detection, 10 nM and 100 nM Nanobody, average n = 3, relative to hCXCR4.
Description: as §1, §2
On the technique in general: In flow cytometry, cells or beads pass a laser one at a time.

Test [3] addresses all CXCR4 library clones containing a mutation at D187. Put plainly: immunofluorescence, average over all clones with a mutation at D187.
For test [4], the target named is all CXCR4 library clones containing a mutation at F189. Put plainly: immunofluorescence, average over all clones with a mutation at F189.
Test [5] deals with all CXCR4 library clones containing a mutation at S178. Put plainly: immunofluorescence, average over all clones with a mutation at S178.
Test [6] concerns the target T3, CXCR4 mutation library clone 1057 (K230E, S178R) (human, UniProt P61073 1-352).
T3 chain: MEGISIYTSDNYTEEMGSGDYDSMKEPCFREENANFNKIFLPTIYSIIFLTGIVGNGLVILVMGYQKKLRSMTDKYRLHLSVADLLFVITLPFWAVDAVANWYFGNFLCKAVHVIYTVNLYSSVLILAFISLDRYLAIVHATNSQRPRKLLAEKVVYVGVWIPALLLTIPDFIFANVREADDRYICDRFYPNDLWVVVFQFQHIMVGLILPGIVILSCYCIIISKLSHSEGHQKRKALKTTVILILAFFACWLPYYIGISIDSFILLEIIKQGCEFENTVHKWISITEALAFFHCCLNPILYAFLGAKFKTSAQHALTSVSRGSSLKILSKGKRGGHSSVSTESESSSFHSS
The experiment in a line: immunofluorescence on HEK-293T expressing the clone, normalised to wild type.

The target in test [7] is T4, CXCR4 mutation library clone 414 (C218R, E179V, S351T) (human, UniProt P61073 1-352).
T4 chain: T3 chain with R178S, E179V, C218R, E230K, S351T
The test is described as above.

The target of test [8] is T5, CXCR4 mutation library clone 2834 (E179V, G258E) (human, UniProt P61073 1-352).
T5 chain: T3 chain with R178S, E179V, E230K, G258E
The test is described as above.

Test [9] has as its target T6, CXCR4 mutation library clone 3728 (D187A, Y157C) (human, UniProt P61073 1-352).
T6 chain: T3 chain with Y157C, R178S, D187A, E230K
The description is as above.

For test [10], the target named is CXCR4 mutation library clone 914 (N192K) (human, UniProt P61073 1-352). The description is as above.
Test [11] has as its target CXCR4 mutation library clone 2270 (V196E) (human, UniProt P61073 1-352). The test is described as above.

Substitutions are numbered along the chain they refer to.

T2 sequence (P61073 whole entry V196E): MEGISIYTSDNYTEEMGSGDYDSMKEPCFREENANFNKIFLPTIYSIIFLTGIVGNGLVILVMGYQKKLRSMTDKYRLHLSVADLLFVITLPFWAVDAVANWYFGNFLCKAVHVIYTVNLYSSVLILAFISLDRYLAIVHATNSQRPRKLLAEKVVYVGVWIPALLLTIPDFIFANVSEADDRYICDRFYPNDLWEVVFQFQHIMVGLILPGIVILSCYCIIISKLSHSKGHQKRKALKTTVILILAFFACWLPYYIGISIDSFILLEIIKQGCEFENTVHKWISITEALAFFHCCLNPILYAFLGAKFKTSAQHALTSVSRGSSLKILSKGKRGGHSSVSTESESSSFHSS
T1 sequence (P61073 whole entry): as the sequence (P61073 whole entry V196E) above, with E196V counted along it

B1: 238D2: monovalent anti CXCR4 Nanobody, SEQ ID NO: 2 (protein)
VHH: EVQLVESGGGLVQTGGSLRLSCAASGFTFSSYAMSWVRQAPGKGLEWVSGIKSSGDSTRYAGSVKGRFTISRDNAKNMLYLQMYSLKPEDTAVYYCAKSRVSRTGLYTYDNRGQGTQVTVSS
modifications: Nanobody
Turning to B1, the “HEK293T CXCR4 binding” value in test [1] was “+ (>75% binding to mutant rel. to hCXCR4)”. Further, the “Hek293T V196E binding” value in test [2] was “− (<=25% binding to mutant rel. to hCXCR4)”.

B2: Nanobody 238D4 (VHH)
VHH: EVQLMESGGGLVQAGGSLRLSCAASGRTFNNYAMGWFRRAPGKEREFVAAITRSGVRSGVSAIYGDSVKDRFTISRDNAKNTLYLQMNSLKPEDTAVYTCAASAIGSGALRRFEYDYSGQGTQVTVSS
Take B2: the average nanobody reactivity in test [3] was -12.2%; in test [4] it was 0.2%; in test [5], 23.2%. Also, the “% immunofluorescence” value in test [6] is 11.4%; in [7] it was 8%; in [8] it was 19.5%; in [9], -16.4%; in test [10] it was 55.8%; in [11], 94%.
